Reference: article PMC9443353

Experiments:
[1] = target: T1, ZIKV NS1 (Zika virus, UniProt A0A024B7W1 795-1146); test: ELONA; protein on Cu2+-coated plate; Hill slope fit; ELONA: borate buffer (60 mM in selection), 37 °C, 30 min, pH not stated; specificity: selection buffer, filtration, qPCR; FET: human serum as gate electrolyte; conditions: chain copies: 2; label: digoxigenin
[2] = target: T1, ZIKV NS1; test: graphene FET; human serum; Hill n = 0.8 ± 0.2; sequential NS1 addition; ELONA: borate buffer (60 mM in selection), 37 °C, 30 min, pH not stated; specificity: selection buffer, filtration, qPCR; FET: human serum as gate electrolyte; conditions: chain copies: 2
[3] = target: YFV NS1 (Yellow fever virus, UniProt P03314 779-1130)
[4] = target: DENV1 NS1 (Dengue virus serotype 1, UniProt P17763 776-1127); test: filter binding with qPCR; 100 nM aptamer, 40 pmol protein; ELONA: borate buffer (60 mM in selection), 37 °C, 30 min, pH not stated; specificity: selection buffer, filtration, qPCR; FET: human serum as gate electrolyte; conditions: chain copies: 2
[5] = target: DENV3 NS1 (Dengue virus serotype 3, UniProt Q6YMS4 774-1125); test: as above

B1: ZIKV60 (digoxigenin-labeled) (ssDNA)
DNA: CTTCTGCCCGCCTCCTTCCGGGCCCCGGGGGGTGTCCAGGCCCATGCGTCGTCCGCGGGGAGACGAGATAGGCGGACACT
B1 gave a Kd [1] of 2.28 ± 0.28 nM.

B2: ZIKV60 (pyrene-modified) (ssDNA)
DNA: B1 DNA
modifications: pyrene
With B2 the “apparent K (half saturation)” value [2] was 1.4 ± 0.3 pg/mL.

B3: ZIKV60 (ssDNA)
DNA: B1 DNA
In the case of B3, the binding signal [3] is reported as 14.2 ratio ZIKV NS1/YFV NS1 bound, the binding signal [4] is reported as 14.2 ratio ZIKV NS1/DENV1 NS1 bound and the binding signal [5] is reported as 13.4 ratio ZIKV NS1/DENV3 NS1 bound.
